Laboratory results as given in the supplement of paper PMC12764529.
± gives the half width of the 95% confidence interval.

assay: folding stability dG unfold (combined trypsin and chymotrypsin); higher = more stable
How it was run: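 Designed mini-proteins (under 80 residues, no cysteine) in a PA-tagged cDNA display construct were digested with trypsin and chymotrypsin. Each protease was used at 11 concentrations (threefold dilutions) plus a no-protease condition, followed by sequencing. K50 was inferred by Bayesian fitting of sequencing counts, and unfolding free energy was derived against a sequence-predicted unfolded-state K50 and a shared folded-state K50, per protease or combined. Only designs with AlphaFold2 dimer inter-PAE above 15 were kept.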

Going from “SAGGSAKPVIVKIHFPNMKPEKILELAKEFGAVPLKMDPNKGVAIVLATEEKVEEIAAKGNFKIEASAGGSA [r15_731_TrMRF]” to “SAGGSAGGSAGGNEEDIEKAVKEAKEKGENAEVKVTLPNGKEETVYIEVNVKEPSEKLKSAGGSAGGSAGGS [r10_573_JUSTAS]”, the “folding stability dG unfold” value falls from 0.515 ± 0.26 kcal/mol to less than -1 kcal/mol.

Compared with “SAGGYDFDPRGEFPFPNGVKVEVWEMTWPDGNPMTMIEIEATIPPPPKPPMSPEDAKENNKDMAKNNSAGGS [r16_8_TrROS]”, “SAGGSAGGMIKITITVPPGVSPEFVREKIAPLGVEVLSVEPLPDGTHRVTIEIPPEITKNPELLSAGGSAGG [r6_470_JUSTAS]” is higher in “folding stability dG unfold” value: 0.211 ± 0.21 kcal/mol for the first, 1.42 ± 0.044 kcal/mol for the second.

“SAGGKELILKLKIEVNGKTLTIEVKVSPEELKKLLDELKKLGIKEIEIESIEFDKETNEIKVKVKVKSAGGS [r8_219_TrROS_Hall]” and “SAGGSAGGSKKKTVEEILKELKKKKNKIIKIKYKDGSTYYINIKTGKIIKLKNIKNVKIEILPSAGGSAGGS [r20_44_TrROS_Hall]” are within error of each other in “folding stability dG unfold” value: 3.77 ± 0.15 kcal/mol for the first, 3.55 ± 0.32 kcal/mol for the second.

Going from “SHWVRKELQEKGYPVKDIEMNPPQGYFYITIQRKRPRKGKPKKKEITIPMDPNMTPDNMLWMARNALDAYSA [r9_184_TrROS]” to “SAGGMVEIELVPMSEEELKKLREELPENEILIVVKEDGLVLIVRVEKSEEEAEKLAEELRKLLEELPSAGGS [r16_311_TrROS_Hall]”, the “folding stability dG unfold” value rises from 0.804 ± 0.1 kcal/mol to 1.69 ± 0.23 kcal/mol.

First: SVYIPIPMGDPEGLKEMLDFIKNILEKNQENGYENVPIPIHMPNGGPFEFPIDPNSTLEEQLDQIEKFIESA [r9_127_TrROS]
Second: SAGGSAGGSKKVKEVTITVKNKDGKTVKITKIYKKKDGSKYVLIKDKKTKKTYKISLEDLKKLSAGGSAGGS [r12_488_TrROS_Hall]
The “folding stability dG unfold” value of the first is lower: 1.15 ± 0.24 kcal/mol for the first, 1.8 ± 0.14 kcal/mol for the second.

First: SAGGKVVVVPFPGPVTPETVAALAAKFIEEGLYDVPLVVVSEVEGRRPDGRPGRRRFGFVYVAKAPKSAGGS [r16_44_TrMRF]
Second: SMKLIGVEEFENAKAVLFEKEDKYIKLVFIPEDIPEGEEIYYIKVFEGDEIIEEKAVKPEEIEEAIKEAGSA [r9_57_TrMRF]
The “folding stability dG unfold” value of the first is higher: 1.59 ± 0.1 kcal/mol for the first, 0.428 ± 0.21 kcal/mol for the second.

Going from “SAMSVTISFDPKGPGGTLTITADPNSPQIEKFINELKKKLNLDIKSYTKTILPNGTVKVTLTYSKINLPSAG [r14_655_JUSTAS]” to “VDPDDPEYQRFVYFVQELAKTIVEEHQEEGPTVDELYITVDPNNVKIEPVDMPPDEWEEHQKEGRPVIPIRS [r1_134_TrROS]”, the “folding stability dG unfold” value falls from 4.51 ± 0.083 kcal/mol to -0.0608 ± 0.28 kcal/mol.

Going from “SAGGSAGGSAGSMAVDLKITISEDPSKPTYTGTVHLPDGTVVTVTSTGSPEELRARLEALLSAGGSAGGSAG [r3_143_JUSTAS]” to “SADLAAELEEGGFVVTITETVVSVTPQTLEKDSFVVEKDVVTTITVTPPPVAPPPPDPANLRDAAGAPVSAG [r14_569_JUSTAS]”, the “folding stability dG unfold” value falls from 1.68 ± 0.088 kcal/mol to 0.798 ± 0.084 kcal/mol.

Compared with “SAGGSAGGMTLTVDLPLPDGGTVRLEVEPLPDGTVRVRLTYPDGRKAEFETSAPVEVLLERAAGSAGGSAGG [r6_808_TrMRF]”, “SAGGEEVTIKLSDELRDLVPDAEIRVERLEDGTLRIEIRVRLPAPEPPEPVERREERRVEVRVEVRLESAGG [r13_129_TrROS_Hall]” is lower in “folding stability dG unfold” value: 2.69 ± 0.086 kcal/mol for the first, 2.14 ± 0.13 kcal/mol for the second.

Going from “SAGGSLVYRLVLRRGDKVLVVTAPFDSPSDALAAASRLLPGGAELLLEFFDPRTGEPLGTVPFRSVSAGGSA [r2_390_TrMRF]” to “SAGGSAMTPVTLEITSEEELEAKIEELAPPGRTVTINVTSTTEKTRVEDDVTRDYTVVTANVTFPPSAGGSA [r15_95_JUSTAS]”, the “folding stability dG unfold” value falls from 2.22 ± 0.034 kcal/mol to 0.399 ± 0.12 kcal/mol.

Going from “SAGGGELYIMFKFDFTFWINNGTISFDMYIMIRIPIPPPPVPIELEDDPDGSYKYEYPNGKEHEVPNSAGGS [r16_136_TrROS]” to “SAGGSAGGSAGGMTIEINGKKYEIVEVKEEKGKLTLKIKVNGKLLEIEIDKDKNEIKIYPSAGGSAGGSAGG [r7_553_TrROS_Hall]”, the “folding stability dG unfold” value rises from 3.23 ± 0.22 kcal/mol to 3.91 ± 0.14 kcal/mol.

Going from “SAGGSAGGSAGGSVYIDPDKGYLVMWNEEDGYIVKYPIDPPNKIPSVDIEPIPPGDPLFSAGGSAGGSAGGS [r4_409_TrROS]” to “SAGGSAGGSAPDIKIEKIGENTYKITLNFEFTFEDGSKVKVKITFTFTVNFPEDDPLLKELFSAGGSAGGSA [r18_215_TrMRF]”, the “folding stability dG unfold” value rises from 1.26 ± 0.11 kcal/mol to 3.02 ± 0.11 kcal/mol.

First: SAGGSAGGSAGERLTADELRKLAEELGLPAEITVERKEDGTYTVTITVDGKTYKIEIKLDSAGGSAGGSAGG [r11_410_TrROS_Hall]
Second: SAGMKPIVELLKKEPNPKVILVEVFPTGGEAKIVVKDKVYVFPVKPGPGRRVLVVDPDGKILEVKPFPVSAG [r5_329_TrMRF]
The “folding stability dG unfold” value of the first is higher: 3.16 ± 0.15 kcal/mol for the first, 0.708 ± 0.12 kcal/mol for the second.

“SMIIPPELGFEEAVELIKELLEPEKTYLVVTGDPETGTLSVARLDPETGEVEVEPLPTTEGESFVAVFEISA [r9_1059_TrMRF]” and “SANMDMPPGFKPIARDDDITIWQNPNPVYIMIRGPDGKHKMLPFNPGDPEKIKDLIREFADDGITDIMISAG [r14_12_TrROS]” are within error of each other in “folding stability dG unfold” value: 1.27 ± 0.07 kcal/mol for the first, 1.09 ± 0.15 kcal/mol for the second.

Going from “SAGGPKKAIEILKKEGFTIKSVDPKKKKVIATPKETDIPIEIYVIGDDKVLIVEYLKGKPIIKEFKKSAGGS [r16_197_TrMRF]” to “SAGGSAGGSAGGGMSTAVLKIDDKWVPVRIYPDSVVIEYPDGSTKTISLSEIPENLIELPSAGGSAGGSAGG [r7_748_JUSTAS]”, the “folding stability dG unfold” value rises from 0.829 ± 0.15 kcal/mol to 1.43 ± 0.15 kcal/mol.

Compared with “SAGGSAGGSAGLTKPVEVEVEEDGTVTIKTLSIVPVDDGYELHEETTEIPLSPEEIAALQSAGGSAGGSAGG [r17_415_JUSTAS]”, “SAGGKIPKNAKILEVEFDPETGYIRIKVEFYDKNGKLIKKAEITIPILPVPPLSPEDIEKLLKALASSAGGS [r16_697_TrMRF]” is higher in “folding stability dG unfold” value: 0.327 ± 0.17 kcal/mol for the first, 3.59 ± 0.17 kcal/mol for the second.
